Results reported in patent US20130011412A1 (Genentech, published 2013).

Key:
[1] = target: T1, recombinant human lymphotoxin-α homotrimer (human LTα3) (human, UniProt P01374 35-205); test: plate ELISA on coated LTα
T1 construct: Coated on plates in the ELISAs; also called rhLTα; lymphotoxin-α3 trimer
T1 sequence (looked up): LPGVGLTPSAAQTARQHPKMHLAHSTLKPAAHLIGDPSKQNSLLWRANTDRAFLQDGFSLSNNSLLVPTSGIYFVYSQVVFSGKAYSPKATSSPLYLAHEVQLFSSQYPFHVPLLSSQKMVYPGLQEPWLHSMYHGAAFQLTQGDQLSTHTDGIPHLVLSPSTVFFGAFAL

[2] = target: T1, recombinant human lymphotoxin-α …; test: plate ELISA on coated LTα; remark: listed apart in the source
[3] = target: T2, human cell-surface LTαβ complex (LTα complexed with LTβ on the cell surface) (human, UniProt P01374 35-205; Q06643 1-244); test: FACS titration on human Th1 cells, Alexa Fluor 647 conjugates
T2 construct: whole, on cells; also called human LTαβ
T2 sequence (looked up) 1: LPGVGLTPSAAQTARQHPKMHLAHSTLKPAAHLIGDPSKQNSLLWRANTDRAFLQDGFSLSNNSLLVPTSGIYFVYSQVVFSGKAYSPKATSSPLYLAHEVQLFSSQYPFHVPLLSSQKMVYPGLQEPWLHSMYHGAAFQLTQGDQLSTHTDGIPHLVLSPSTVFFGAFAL
T2 sequence (looked up) 2: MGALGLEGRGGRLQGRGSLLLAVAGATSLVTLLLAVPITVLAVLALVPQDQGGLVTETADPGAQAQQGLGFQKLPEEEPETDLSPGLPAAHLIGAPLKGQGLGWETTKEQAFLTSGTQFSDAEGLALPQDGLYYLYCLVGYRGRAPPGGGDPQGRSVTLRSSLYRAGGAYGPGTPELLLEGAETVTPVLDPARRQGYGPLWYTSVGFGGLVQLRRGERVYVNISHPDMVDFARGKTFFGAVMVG
Procedure: (§1) Cells were washed, aspirated, and re-suspended in PBS with 2% FBS. Cells were analyzed on a FACSCALIBUR™ (dual laser) using […]™ software, and results analyzed on a FLOWJO™ analyzer (Treestar).

[4] = target: T1, recombinant human lymphotoxin-α …; test: direct ELISA on plate-coated human LTα3 (1 µg/ml)
[5] = target: T1, recombinant human lymphotoxin-α …; test: blocking ELISA: biotinylated human LTα3 preincubated with the antibody, then captured on coated TNFRII.huIgG1 (m10)
[6] = target: T1, recombinant human lymphotoxin-α …; test: BIACORE (rhLTα)
[7] = target: T1, recombinant human lymphotoxin-α …; test: plate ELISA on coated human LTα
[8] = target: T1, recombinant human lymphotoxin-α …; test: plate ELISA, IgG
[9] = target: T1, recombinant human lymphotoxin-α …; test: phage competitive ELISA, LTα (0-50 nM) in solution against plate-coated LTα
Procedure: (§2) For the first round, phage were captured for 2 hours against 2 μg/ml plate-coated LTα at ambient temperature. The second and third rounds of selection were performed at ambient temperature by capturing phage for 30 minutes with 2 nM biotinylated LTα in solution phase, followed by capture on neutravidin-coated plates. The highest affinity clone was identified using a competitive ELISA. Constant concentrations of phage clones (normalized by solid-phase LTα binding OD) were incubated with increasing concentrations of LTα (0-50 nM) in solution before capture on a plate coated with 2 μg/ml LTα.

[10] = target: T1, recombinant human lymphotoxin-α …; test: phage competitive ELISA: rhLTα in solution competes with plate-coated LTα
Procedure: as §2

[11] = target: T3, murine cell-surface LTαβ complex on transfected SVT2 cells (murine, UniProt P09225 34-202; P41155 1-306); test: FACS on SVT2 cells stably expressing murine LTαβ, reagents conjugated to ALEXA-647
T3 construct: whole, on cells; also called murine LTαβ
T3 sequence (looked up) 1: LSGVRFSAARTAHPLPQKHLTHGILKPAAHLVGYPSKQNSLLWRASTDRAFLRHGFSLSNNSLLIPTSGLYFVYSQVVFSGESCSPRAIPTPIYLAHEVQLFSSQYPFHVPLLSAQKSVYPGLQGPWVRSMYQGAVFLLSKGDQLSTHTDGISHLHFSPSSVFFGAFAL
T3 sequence (looked up) 2: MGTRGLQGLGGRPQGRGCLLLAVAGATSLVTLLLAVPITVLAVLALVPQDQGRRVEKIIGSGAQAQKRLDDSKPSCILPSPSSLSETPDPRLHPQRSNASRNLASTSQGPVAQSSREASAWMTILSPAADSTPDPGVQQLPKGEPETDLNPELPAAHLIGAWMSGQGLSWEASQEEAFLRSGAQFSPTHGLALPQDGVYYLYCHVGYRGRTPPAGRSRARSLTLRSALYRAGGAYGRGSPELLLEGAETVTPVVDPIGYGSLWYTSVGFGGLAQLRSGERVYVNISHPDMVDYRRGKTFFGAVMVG
Procedure: For murine LTαβ, SVT2 cells were transfected with full-length murine LTα and murine LTαβ (murine LTα sequence GenBank Ref NM_{—}010735; murine LTβ sequence GenBank Ref NM_{—}008518) to generate stable murine LTαβ-expressing cell lines. […] Cells were washed, aspirated, and resuspended in PBS with 2% FBS. Cells were analyzed on a FACSCALIBUR™ (dual laser) using […]™ software, and results analyzed on a FLOWJO™ analyzer (Treestar).

[12] = target: T4, human LTα1β2 heterotrimer (R&D Systems) (human, UniProt P01374 35-205; Q06643 49-244, limits assumed); test: ELISA on coated LTα1β2
T4 construct: also called LTαβ
T4 sequence (looked up) 1: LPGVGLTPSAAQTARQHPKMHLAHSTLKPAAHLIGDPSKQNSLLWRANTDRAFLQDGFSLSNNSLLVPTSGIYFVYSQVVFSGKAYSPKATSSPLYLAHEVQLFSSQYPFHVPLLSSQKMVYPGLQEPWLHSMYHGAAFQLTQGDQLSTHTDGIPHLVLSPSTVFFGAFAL
T4 sequence (looked up) 2: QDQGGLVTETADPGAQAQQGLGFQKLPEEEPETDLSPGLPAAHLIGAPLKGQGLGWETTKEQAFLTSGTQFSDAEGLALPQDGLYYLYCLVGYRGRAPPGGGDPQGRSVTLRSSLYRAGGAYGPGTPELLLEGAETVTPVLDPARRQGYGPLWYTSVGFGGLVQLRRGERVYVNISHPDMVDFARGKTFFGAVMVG

[13] = target: T1, recombinant human lymphotoxin-α …; test: cell-based or functional assay
[14] = target: T2, human cell-surface LTαβ complex (LTα …); test: FACS titration on human Th2 cells, Alexa Fluor 647 conjugates
Procedure: as §1

B1: humanized 3F12.v2 (antibody, IgG1, name in Kabat numbering, V domains shown)
VH: EVQLVESGGGLVQPGGSLRLSCAASGYTFSSYWIEWVRQAPGKGLEWVGEISPGSGSTNYNEEFKGRATFSADNSKNTLYLQMNSLRAEDTAVYYCADGYHGYWGQGTLVTVSS
VL: DIQMTQSPSSLSASVGDRVTITCKSSQSLLYSTNQKNFLAWYQQKPGKAPKLLIYWASTRDSGVPSRFSGSGSGTDFTLTISSLQPEDFATYYCQQYYSYPRTFGQGTKVEIKR
notes: Built back from 3F12.v5; human kappa / IgG1 constant domains; also called I69F
- Relative binding [1]: > 1000 fold down from the chimera

B2: humanized 3F12.v5 (antibody, IgG1, V domains shown)
VH: EVQLVESGGGLVQPGGSLRLSCAASGYTFSSYWIEWVRQAPGKGLEWVGEISPGSGSTNYNEEFKGRATFSADNSKNTAYLQMNSLRAEDTAVYYCADGYHGYWGQGTLVTVSS
VL: DIQMTQSPSSLSASVGDRVTITCKSSQSLLYSTNQKNFLAWYQQKPGKAPKLLIYWASTRDSGVPSRFSGSGSGTDFTLTISSLQPEDFATYYCQQYYSYPRTFGQGTKVEIKR
notes: Human kappa / IgG1 constant domains (vectors of humanized 2G7 version 5); also called version 5
- fold weaker binding than the chimera [2]: ~5 fold

B3: humanized 3F12.v4 (antibody, IgG1, name in Kabat numbering, V domains shown)
VH: EVQLVESGGGLVQPGGSLRLSCAASGYTFSSYWIEWVRQAPGKGLEWVGEISPGSGSTNYNEEFKGRATISADNSKNTAYLQMNSLRAEDTAVYYCADGYHGYWGQGTLVTVSS
VL: DIQMTQSPSSLSASVGDRVTITCKSSQSLLYSTNQKNFLAWYQQKPGKAPKLLIYWASTRDSGVPSRFSGSGSGTDFTLTISSLQPEDFATYYCQQYYSYPRTFGQGTKVEIKR
notes: Built back from 3F12.v5; human kappa / IgG1 constant domains; also called L78A
- Relative binding [1]: > 500 fold down from the chimera

B4: LTbR.huIgG1 (Fc fusion, human, UniProt P36941 31-227, looked up)
receptor-Fc fusion chain: QAVPPYASENQTCRDQEKEYYEPQHRICCSRCPPGTYVSAKCSRIRDTVCATCAENSYNEHWNYLTICQLCRPCDPVMGLEEIAPCTSKRKTQCRCQPGMFCAAWALECTHCELLSDCPPGTEAELKDEVGKGNNHCVPCKAGHFQNTSSPSARCQPHTRCENQGLVEAAPGTAQSDTTCKNPLEPLPPEMSGTMLM
notes: receptor portion of an Fc fusion; also called LTβ-receptor.huIgG1; human LTβR.huIgG1
- EC50 (read off the curve) [3]: ~0.05 µg/mL

B5: chimeric anti-LTα antibody 3F12 (original chimera) (antibody, human IgG1, kappa, V domains shown)
VH: QGQLQQSGAELMKPGASVKISCKATGYTFSSYWIEWVKQRPGHGLEWIGEISPGSGSTNYNEEFKGKATFTADKSSNTAYIQLSSLSTSEDSAVYYCADGYHGYWGQGTTLTVSS
VL: DIVMSQSPSSLAVSVGEKVTMSCKSSQSLLYSTNQKNFLAWYQQKPGQSPKLLIYWASTRDSGVPDRFTGSGSGTDFTLTISSVKAEDLAVYYCQQYYSYPRTFGGGTKLEIKR
notes: Murine variable domains on human C kappa and IgG1; also called 3F12 chimera; chimeric 3F12
- Relative binding [1]: 1 relative to the original chimera
- EC50 (read off the curve) [4]: ~300 pM
- IC50 (read off the curve) [5]: ~20000 pM

B6: chimeric anti-LTα antibody 2C8 (antibody, human IgG1, kappa, V domains shown)
VH: EVQLQQSGPELVKPGASVKLSCKASGYTFTSYVIHWVKQKPGQGLEWIGYNNPYNDGTNYNEKFKGKATLTSDKSSSTAYMELSSLTSEDSAVYYCSRPTMLPWFAYWGQGTTLTVSA
VL: DIVMTQSHKFMSTSVGDRVSITCKASQAVSSAVAWYQQKPGQSPKLQIYSASHRYTGVPDRFTGSGSGTDFTFTISSVQAEDLAVYYCQQHYSTPWTFGGGTKVEIKR
notes: Murine variable domains on human kappa and human IgG1; also called 2C8 chimera; 2C8.chimera
- Kd [6]: 600 pM
- ELISA IC50 ratio [7]: 1 ratio
- EC50 (read off the curve) [4]: ~100 pM
- IC50 (read off the curve) [5]: ~5000 pM

B7: humanized 2C8.v7 (antibody, V domains shown)
VH: EVQLVESGGGLVQPGGSLRLSCAASGYTFTSYVIHWVRQAPGKGLEWVGYNNPYNDGTNYNEKFKGRATISSDKSKNTAYLQMNSLRAEDTAVYYCSRPTMLPWFAYWGQGTLVTVSS
VL: DIQMTQSPSSLSASVGDRVTITCRASQAVSSAVAWYQQKPGKAPKLLIYSASHRYTGVPSRFSGSGSGTDFTLTISSLQPEDFATYYCQQHYSTPWTFGQGTKVEIKR
notes: Human kappa / IgG1; copies: 2 + 2
- Kd [6]: 400 pM
- ELISA IC50 ratio [7]: 1.2 ratio

B8: humanized 2C8.v16 (antibody, human IgG1, V domains shown)
VH: EVQLVESGGGLVQPGGSLRLSCAASGYTFTSYVIHWVRQAPGKGLEWVGYNNPYNDGTNYNEKFKGRFTISSDKSKNTAYLQMNSLRAEDTAVYYCSRPTMLPWFAYWGQGTLVTVSS
VL: DIQMTQSPSSLSASVGDRVTITCRASQAVSSAVAWYQQKPGKAPKLLIYSASHRYTGVPSRFSGSGSGTDFTLTISSLQPEDFATYYCQESYSTPWTFGQGTKVEIKR
notes: Heavy chain: v12 variable domain on human IgG1; copies: 2 + 2
- fold improvement in binding compared to 2C8.v2 [8]: 2 fold
- ELISA IC50 ratio [7]: 0.6 ratio

B9: phage-displayed 2C8 Fab clone A8 (Fab, V domains shown)
VH: EVQLVESGGGLVQPGGSLRLSCAASGYTFTSYVIHWVRQAPGKGLEWVGYNNPYNDGTNYNEKFKGRATISSDKSKNTAYLQMNSLRAEDTAVYYCSRPTMLPWFAYWGQGTLVTVSS
VL: DIQMTQSPSSLSASVGDRVTITCRASQAVSSAVAWYQQKPGKAPKLQIYSASHRYTGVPSRFSGSGSGTDFTLTISSLQPEDFATYYCQESYSTPWTFGQGTKVEIKR
notes: All phagemids kept the wild-type CDR-H3; also called 2C8 clone A8
- fold improvement in competition over wild-type 2C8.v2 [9]: 10 fold
- IC50 [10]: 320 pM

B10: LTbR.muIgG2a (Fc fusion, mouse, UniProt P50284 31-223, looked up)
receptor-Fc fusion chain: QLVPPYRIENQTCWDQDKEYYEPMHDVCCSRCPPGEFVFAVCSRSQDTVCKTCPHNSYNEHWNHLSTCQLCRPCDIVLGFEEVAPCTSDRKAECRCQPGMSCVYLDNECVHCEEERLVLCQPGTEAEVTDEIMDTDVNCVPCKPGHFQNTSSPRARCQPHTRCEIQGLVEAAPGTSYSDTICKNPPEPGAMLL
notes: receptor portion of an Fc fusion; also called LTβ-receptor murine IgG2a; muLTβR.IgG2a
- binding result [11]: binds

B11: human TNFRII.huIgG1 (ENBREL®) (Fc fusion, UniProt P20333 23-257, looked up)
chain: LPAQVAFTPYAPEPGSTCRLREYYDQTAQMCCSKCSPGQHAKVFCTKTSDTVCDSCEDSTYTQLWNWVPECLSCGSRCSSDQVETQACTREQNRICTCRPGWYCALSKQEGCRLCAPLRKCRPGFGVARPGTETSDVVCKPCAPGTFSNTTSSTDICRPHQICNVVAIPGNASMDAVCTSTSPTRSMAPGAVHLPQPVSTRSQHTQPTPEPSTAPSTSFLLPMGPSPPAEGSTGD
notes: extracellular domain; also called TNFRII.Fc; etanercept; not shown: Fc portion of a human IgG1
- binding result [12]: no binding
- IC50, blocking of human LT-induced cytotoxicity [13]: 830 pM
- binding result [14]: no binding (tested: 100 ug/ml)
